Results taken from PMC4690471 (Cell, 2015).

B1: full-length zebrafish RAG2 (natural protein, UniProt O13034 1-530, looked up)
chain: MSLQPLTAVNCGSLVQPGFSLLDLEGDVYLFGQKGWPKRSCPTGIFGVRIKKGELKLRAISFSNNSSYLPPLRCPAIAHFEAQDGKPECYLIHGGRTPNNELSSSLYMLSVDSRGCNRKVTLRCEEKELVGDVPSARYGHTLSVINSRGKTACVLFGGRSYMPPTERTTQNWNSVGDCPPQVYLIDLEFGCCTAHTLPELTDGQSFHVALARQDCVYFLGGHILSSDCRPSRLIRLHVELLLGSPVLTCTILHEGLTITSAIASPIGYHEYIIFGGYQSETQKRMECTYVGLDDVGVHMESREPPQWTSEISHSRTWFGGSLGKGTALVAIPSEGNPTPPEAYHFYQVSFQKEQDGEATAQGCSQESTDFEDSAPLEDSEELYFGREPHELEYSSDVEGDTYNEEDEEDESQTGYWIKCCLSCQVDPNIWEPYYSTELTRPAMIFCSRGEGGHWVHAQCMELPESLLLQLSQDNSKYFCLDHGGLPKQEMTPPKQMLPVKRVPMKMTHRKAPVSLKMTPAKKTFLRRLFD
B2: zebrafish RAG1 (271–1031) (domain or fragment, UniProt O13033 271-1031, looked up)
chain: RCQRDHLSTKLIPTEVPADLIRAVTCQVCDHLLSDPVQSPCRHLFCRLCIIRYTHALGPNCPTCNQHLNPSHLIKPAKFFLATLSSLPLLCPSEECSDWVRLDSFREHCLNHYREKESQEEQTPSEQNLDGYLPVNKGGRPRQHLLSLTRRAQKHRLRDLKNQVKTFAEKEEGGDVKSVCLTLFLLALRAGNEHKQADELEAMMQGRGFGLHPAVCLAIRVNTFLSCSQYHKMYRTVKATSGRQIFQPLHTLRNAEKELLPGFHQFEWQPALKNVSTSWDVGIIDGLSGWTVSVDDVPADTISRRFRYDVALVSALKDLEEDIMEGLRERALDDSMCTSGFTVVVKESCDGMGDVSEKHGSGPAVPEKAVRFSFTIMSISIRLEGEDDGITIFQEQKPNSELSCRPLCLMFVDESDHETLTAILGPVVAERKAMMESRLIISVGGLLRSFRFFFRGTGYDEKMVREMEGLEASGSTYICTLCDSTRAEASQNMVLHSITRSHDENLERYEIWRKNPFSESADELRDRVKGVSAKPFMETQPTLDALHCDIGNATEFYKIFQDEIGEVYQKPNPSREERRRWRSTLDKQLRKKMKLKPVMRMNGNYARRLMTREAVEAVCELVPSEERREALLKLMDLYLQMKPVWRSTCPSRDCPDQLCQYSYNSQQFADLLSSMFKYRYDGKITNYLHKTLAHVPEIVERDGSIGAWASEGNESGNKLFRRFRKMNARQSKTFELEDILKHHWLYTSKYLQKFMEAHKNS

How the values were obtained:
[1] = biological target: B2; assay: cryo-EM structure
[2] = biological target: the molecule itself; assay: cryo-EM structure

| Binder | binding result [1] | stoichiometry N [2] |
| --- | --- | --- |
| B1 | binds |  |
| B2 |  | 2 |
